Experimental data: article PMC11479938

Biological target: SerRS (full-length human seryl-tRNA synthetase) (human) (UniProt P49591)
Sequence (P49591 whole entry): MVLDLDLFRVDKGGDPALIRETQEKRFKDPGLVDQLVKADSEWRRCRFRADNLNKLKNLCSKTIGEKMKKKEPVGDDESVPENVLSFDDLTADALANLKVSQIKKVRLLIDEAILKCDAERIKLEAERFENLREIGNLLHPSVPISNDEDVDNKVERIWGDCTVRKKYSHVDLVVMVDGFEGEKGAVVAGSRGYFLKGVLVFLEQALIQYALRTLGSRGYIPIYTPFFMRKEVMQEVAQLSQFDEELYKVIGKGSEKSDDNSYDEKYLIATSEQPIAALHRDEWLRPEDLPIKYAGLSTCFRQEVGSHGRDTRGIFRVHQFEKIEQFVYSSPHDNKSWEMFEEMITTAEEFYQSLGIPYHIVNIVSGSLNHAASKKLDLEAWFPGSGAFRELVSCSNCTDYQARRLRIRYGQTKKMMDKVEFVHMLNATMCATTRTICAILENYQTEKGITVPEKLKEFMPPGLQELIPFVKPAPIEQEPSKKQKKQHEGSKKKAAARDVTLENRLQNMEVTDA

in vitro methyltransferase activity of METTL6 on tRNA^SerUGA after adding SerRS (^3H-SAM incorporation): 1000 fold
Substance: METTL6 (full-length human m^3C tRNA methyltransferase) (from UniProt Q8TCB7 1-284) (enzyme)
